In US7794711B2, “Agent for treating chondroma and chondrosarcoma” (Chugai Seiyaku Kabushiki Kaisha, priority 2002, dated 2010):
Each block holds one molecule with its values, some of them ahead of it.

Legend:
[1] = test system: Human chondrosarcoma cell HTB-94; experiment: Viability of cells (Premix WST-1 Cell Proliferation Assay System); assay type: cell-based; settings: 20 μM, 2 hours before the addition of anti-PTHrP MoAb (FIG. 2)
Method: Human chondrosarcoma cell HTB-94 (ATCC) was suspended in Dulbecco's Modified Eagle's Medium (DMEM) containing 10% FBS, L-glutamine, penicillin-streptomycin (all are available from GIBCO-BRL), and was cultured and proliferated at 37° C. under 5% CO2 wet condition.
That is, reduction ratio of tetrazolium salt (WST-1) by viable cells was determined from the increase in OD450, and it was considered as the index of the number of viable cells.

PTHrP (1-34) [2] = target: T1, PTHrP (1-34) (Homo sapiens, UniProt P12272); experiment: ELISA measurement of antigen binding ability; set-up: coated with 100 μl of human PTHrP(1-34) (Peptide Research Institute); purchased Peptide Research Institute; settings: expressed in COS-7 cells; H chain humanized version a
Method: The ELISA plate for antigen binding measurement was prepared as follows. Each well of a 96 well plate for ELISA was coated with 100 μl of human PTHrP(1-34) (Peptide Research Institute) adjusted to 1 μg/ml concentration by the coating buffer. […] After the plate was incubated at room temperature and washed with PBS-Tween20, 100 μl of alkaline phosphatase (TAGO) conjugated goat anti-man IgG antibody was added. After the plate was incubated at room temperature and washed with PBS-Tween20, 1 mg/ml of a substrate solution (Sigma104, p-nitrophenylphosphate, SIGMA) was added, and, next, 405 nm absorption was measured with a micro plate reader (Bio Rad).
The ELISA plate for antigen binding measurement was prepared as follows. Each well of a 96 well plate for ELISA was coated with 100 μl of human PTHrP(1-34) adjusted to 1 μg/ml concentration by the coating buffer. After blocking with 200 μl of the dilution buffer, the culture supernatant of the COS-7 cells in which hybrid antibody or humanized antibody was expressed or the purified hybrid antibody or the humanized antibody was stepwise diluted and added to each well. After the plate was incubated at room temperature and washed with PBS-Tween20, 100 μl of alkaline phosphatase (TAGO) conjugated goat anti-man IgG antibody was added. After the plate was incubated at room temperature and washed with PBS-Tween20, 1 mg/ml of a substrate solution (Sigma104, p-nitrophenylphosphate, SIGMA) was added, and 405 nm absorption was then measured on a micro plate reader (Bio Rad).

HTB-94 cells [3] = experiment: Immunocytochemistry using anti-collagen type X antibody; assay type: cell-based, human; settings: particularly at high concentration, seven days
Method: Immunocytochemistry was performed by streptavidin-peroxidase method using histofine SAB-PO kit ([…]). […] Subsequently, the cells were transferred to 3% H2O2 methanol to block endogenous peroxidase activity, washed with PBS (pH 7.2), and then blocked with PBS containing normal 10% serum (secondary antibody) of the congeneric origin in order to make the background minimum and incubated with anti-collagen type X antibody (primary antibody) at room temperature for 2 hours. Afterwards the cells were washed with PBS, incubated with the secondary antibody at room temperature in a wet chamber for 20 minutes, and incubated with peroxidase conjugated streptavidin ([…]) for 20 minutes under the same conditions. Finally, coloring reaction was performed with 3,3-diaminobenzidine tetrahydrochloride (DAB) reagent (Dojindo). The cells were counterstained with hematoxylin and microscopically observed at 200-fold and 400-fold magnification.

HTB-94 cells [4] = experiment: DNA fragmentation assay; assay type: cell-based, human; settings: two days
Method: That is, the cells were dissolved in a dissolution buffer, DNA was isolated, extracted with an organic solvent and ethanol precipitation was carried out. The precipitated DNA was centrifuged (12,000 g, 10 min) and then washed with 80% ethanol, and dissolved in 30 μl of TE buffer. Each sample (10 μl) was subjected to electrophoresis on a 1.2% agarose gel, and stained with ethidium bromide.

PTHrP (1-34) [5] = target: T1, PTHrP (1-34); experiment: Screening of hybridomas by solid phase RIA of culture supernatant; assay type: binding; set-up: purchased Peninsula; settings: hybridoma culture supernatant
Method: Hybridomas #23-57-154 and #23-57-137-1 which produce monoclonal antibody to human PTHrP (1-34) were produced as follows (Sato, K. et al., J. Bone Miner. Res. 8, 849-860, 1993). The amino acid sequence of human PTHrP (1-34) is shown in the SEQ ID No. 75.
Screening of hybridomas was performed by measuring and selecting the existence of a PTHrP recognizing antibody by applying solid phase RIA method to the culture supernatant of the wells where growth was recognized in HAT culture medium. Hybridomas were collected from the wells where binding ability with an antibody was recognized, suspended to the culture medium prepared by adding OPI-supplement (Sigma) to the RPMI-1640 culture medium containing FCS 15%, and the hybridomas was simplified by the limiting dilution method.

HTB-94 cells [6] = experiment: RT-PCR; assay type: cell-based, human; settings: 100 μg/ml, two days, vs control
Method: PCR of cDNA was performed using Ready-to-Go PCR beads (Pharmacia) and primers for human Bcl-2, Bax, Ihh, ColX (α1) and β-actin amplification (12.5 pmol(s) each).
Amplification was performed using Perkin-Elmer/Cetus DNA Thermal Cycler (TAKARA SHUZO) on the conditions of 30 cycles each of 94° C., 0.5 min; 55° C., 0.5 min; 72° C., 0.5 min and last extension reaction at 72° C. for 7 minutes.
Electrophoresis of the obtained PCR product (10 μL) was carried out on a 4% agarose gel, and stained and observed with ethidium bromide.

HTB-94 cells [7] = experiment: Western blotting of HTB-94 cell lysates; assay type: cell-based, human
Method: In the experiment with regard to the following collagen type-X, the cells were treated by anti-PTHrP MoAb for further five days (for total seven days). All the cell lysates (50 μg as protein) of the above-mentioned cells were separated by SDS-PAGE using 12% gel and blotted on a nitrocellulose film (Bio-Rad Laboratories). The blocked film was incubated together with an anti-procaspase-3 antibody (Wako Pure Chemical) diluted to 1/100, an anti-PARP antibody, an anti-Bcl-2 antibody and an anti-Bax antibody (both from Santa Cruz Biotechnology), an anti-collagen type X antibody (Calbiochem-Novabiochem Corporation) and a peroxidase conjugated secondary antibody (Amersham) diluted to 1/1000.
Here, PARP (poly(ADP-ribose) polymerase) is an enzyme important for the survival in a cell, and caspase-3 causes cleavage of this PARP.
Detection was performed using ECL Western blotting detection system (Amersham). Each blot was further re-detected by ECL using anti-o-actin antibody (Santa Cruz Biotechnology) and the peroxidase conjugated secondary antibody.

HTB-94 cells [8] = experiment: TUNEL staining; assay type: cell-based, human; settings: two days
Method: TUNEL staining was performed using Apoptag Peroxidase Kit (Intergen Company). […] Subsequently, the cells were incubated with a TdT reaction mixture (TdT solution+[…] and dATP) at 37° C. for 60 minutes, and further incubated with peroxidase conjugated anti-dioxygenin antibody at room temperature for 30 minutes. The cells were stained with DAB and then counterstained with Mayer's hematoxylin and microscopically observed at 200-fold, 400-fold and 600-fold magnification.

[9] = 0, 10, 30, 50, 100, and 200 μg/ml, two days

Molecule: DEVD-CHO
effect of caspase-3 inhibitor on the effect of anti-PTHrP MoAb on cell viability [1]: inhibited the effect of this anti-PTHrP MoAb

B1: m/hMBC1Laλ: hybrid antibody: L chain mouse FR1, 2/human FR3, 4 (version a); humanized H chain (antibody, V domains shown)
VH: QVQLVESGGGVVQPGRSLRLSCAASGFTFSSYGMSWVRQAPGKGLEWVATISSGGSYTYYPDSVKGRFTISRDNSKNTLYLQMNSLRAEDTAVYYCARQTTMTYFAYWGQGTLVTVSS
VL: QLVLTQSSSASFSLGASAKLTCTLSSQHSTYTIEWYQQQPLKPPKYVMDLKQDGSHSTGDGIPDRFSGSSSGAERYLTISSLQSEDEADYYCGVGDTIKEQFVYVFGGGTKLTVL
PTHrP binding ability compared with chimeric antibody (PTHrP (1-34) [2]): equivalent to chimera #23-57-137-1 antibody

B2: m/hMBC1Ldλ: hybrid antibody: L chain mouse FR1, 2/human FR3, 4 (version d, 87 isoleucine); humanized H chain (antibody, V domains shown)
VH: QVQLVESGGGVVQPGRSLRLSCAASGFTFSSYGMSWVRQAPGKGLEWVATISSGGSYTYYPDSVKGRFTISRDNSKNTLYLQMNSLRAEDTAVYYCARQTTMTYFAYWGQGTLVTVSS
VL: QLVLTQSSSASFSLGASAKLTCTLSSQHSTYTIEWYQQQPLKPPKYVMDLKQDGSHSTGDGIPDRFSGSSSGAERYLTISSLQSEDEADYICGVGDTIKEQFVYVFGGGTKLTVL
PTHrP binding ability compared with chimeric antibody (PTHrP (1-34) [2]): equivalent to chimera #23-57-137-1 antibody

B3: hmmMBC1L(λ): hybrid antibody: L chain human FR1/mouse FR2, 3, 4; humanized H chain (antibody, V domains shown)
VH: QVQLVESGGGVVQPGRSLRLSCAASGFTFSSYGMSWVRQAPGKGLEWVATISSGGSYTYYPDSVKGRFTISRDNSKNTLYLQMNSLRAEDTAVYYCARQTTMTYFAYWGQGTLVTVSS
VL: QLVLTQSPSASASLGASVKLTCTLSSQHSTYTIEWYQQQPLKPPKYVMDLKQDGSHSTGDGIPDRFSGSSSGADRYLSISNIQPEDEAMYICGVGDTIKEQFVYVFGGGTKVTVL
PTHrP binding ability compared with chimeric antibody (PTHrP (1-34) [2]): equivalent to chimera #23-57-137-1 antibody

binding ability with PTHrP (1-34) (PTHrP (1-34) [5]): strong binding ability
B4: anti-PTHrP MoAb: mouse monoclonal antibody to human PTHrP (1-34) prepared from hybridoma #23-57-137-1 (FERM BP-5631) (antibody, V domains shown)
VH: EVQLVESGGDLVKPGGSLKLSCAASGFTFSSYGMSWIRQTPDKRLEWVATISSGGSYTYYPDSVKGRFTISRDNAKNTLYLQMSSLKSEDTAMFYCARQTTMTYFAYWGQGTLVTVSA
VL: QLVLTQSSSASFSLGASAKLTCTLSSQHSTYTIEWYQQQPLKPPKYVMDLKQDGSHSTGDGIPDRFSGSSSGADRYLSISNIQPEDEAMYICGVGDTIKEQFVYVFGGGTKVTVLGQP
cell morphology (differentiation) (HTB-94 cells [3]): a number of cells which roundly expanded were observed | fragmentation of DNA in nucleosome specific to apoptosis (HTB-94 cells [4]; 10 μg/ml): observed | fragmentation of DNA in nucleosome specific to apoptosis (HTB-94 cells [4]; 200 μg/ml): observed | amount of expression of Bax (mRNA) (HTB-94 cells [6]): increased | amount of expression of Bcl-2 (mRNA) (HTB-94 cells [6]): decreased | 85 kDa fragment of PARP (HTB-94 cells [7]; [9]): increased depending on the concentration | Bax (protein) (HTB-94 cells [7]; [9]): increased as the concentration of anti-PTHrP MoAb increased | Bcl-2 (protein) (HTB-94 cells [7]; [9]): decreased as the concentration of anti-PTHrP MoAb increased | procaspase-3 (35 kDa) (HTB-94 cells [7]; 100 μg/ml, two days): decreased | procaspase-3 (35 kDa) (HTB-94 cells [7]; 200 μg/ml, two days): decreased | anti-PTHrP MoAb concentration at maximum collagen type X (HTB-94 cells [7]; total seven days): 50 µg/mL | collagen type X (protein) (HTB-94 cells [7]; treated vs untreated cells, total seven days): more collagen type X in the cells treated with Anti-PTHrP MoAb than in untreated cells | frequency of appearance of cells in apoptosis (stained brown) (HTB-94 cells [8]; 0, 10, 100, or 200 μg/ml): increased depending on the concentration | morphological changes characteristic of apoptosis (HTB-94 cells [8]; after treatment): contraction and round outline were also recognized
